From patent US20240182530A1

Experiments:
sfGFP-SpyTag003 Loop A [1] = assay: isopeptide bond formation, 5 µM each, PBS pH 7.5, 25 °C, SDS-PAGE densitometry
[2] = target: Gre2p-SpyTag003 Loop B (Saccharomyces cerevisiae) (UniProt Q12068); assay: as above
sfGFP-SpyTag003 Loop A [3] = assay: isopeptide bond formation, SDS-PAGE densitometry; reference SpyTag003 as a terminal fusion with SpyCatcher003

Sequence of UniProt Q12068 (Q12068 other isoform, or with tags, fused parts or gaps): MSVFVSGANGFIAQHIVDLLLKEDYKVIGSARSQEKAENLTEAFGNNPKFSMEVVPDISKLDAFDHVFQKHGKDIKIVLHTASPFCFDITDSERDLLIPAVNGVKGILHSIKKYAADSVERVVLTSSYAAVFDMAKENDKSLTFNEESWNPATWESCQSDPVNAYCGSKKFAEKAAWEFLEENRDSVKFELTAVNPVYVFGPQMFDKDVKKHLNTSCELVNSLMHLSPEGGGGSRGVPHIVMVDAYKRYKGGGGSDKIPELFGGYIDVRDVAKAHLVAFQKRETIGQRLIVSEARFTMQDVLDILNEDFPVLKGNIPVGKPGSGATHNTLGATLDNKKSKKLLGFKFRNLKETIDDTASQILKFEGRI

Substance: SpyCatcher003 (designed binder)
- second-order rate constant (sfGFP-SpyTag003 Loop A [1]): 87 M⁻¹ s⁻¹
- second-order rate constant [2]: 93 M⁻¹ s⁻¹
- fold slower than SpyTag003 as a terminal fusion (sfGFP-SpyTag003 Loop A [3]): 6000 fold
